Results taken from the supplement of paper PMC9170038.

System: MS2 coat protein
Assay: apparent KD of MS2 coat protein, switch ON state; designed switch direction (-1 OFF switch, 1 ON switch): 1; higher = weaker reporter binding
Conditions: FMN input: 0 or 200 uM; Eterna round: R93 (includes R88 designs)
Summary of the method: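 On-chip transcription from Illumina sequencing clusters produced the designed RNA switches. These were titrated with SNAP-549-labelled MS2 coat protein (twofold steps, 0.7 or 1.5 nM to 3 µM) in 100 mM Tris-HCl pH 7.5, 80 mM KCl, 4 mM MgCl2, with or without constant ligand. The apparent KD given is the per-design median of normalised cluster binding-curve fits.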

| Sequence | apparent KD of MS2 coat protein [nM] |
| --- | --- |
| GGGAAGAAGAGAGAGGAUAUCCAAAGGAAAACAUGAGGAUCACCCAUGUAAAAGGAAGGAAAUUGGGAGAAGGCUCAAAAGAGGA [salish99-ss2-025] | 21.6 |
| AAAACACAUGAGGAUCACCCAUGUAGAAAUAUGGGAGGAUAUACGAAAACGAAAGACAAAGUAGAAGGCCUAAAAG [saturn 4] | 41.6 |
| AAUACACAUGAGGAUCACCCAUGUAGAAACAAGUCAGGAUAUCCGAUCCACAUGUGAUAAGGAGAAGGGACAAUAA [SS 1 Tesla 7] | 25.5 |
| UCCUUACAUGAGGAUCACCCAUGUCGCAGGAAUCAAGGAUAUGGGACCGCAAGACGGAAACCAGAAGGUGAAAUAU [Gedizala] | 181 |
| UUUAAUUGCGGGCAGGAUAUGUAUUAAAAUACAUGAGGAUCACCCAUGUGCGGGUGUAACACCCGACAGAAGGGCCAAUCGCGAC [Bearisan] | 64.7 |
| AAGAAAGUUUACGAGGAUAUGUUCCGCAGUACAUGAGGAUCACCCAUGUGAACACGAAGGGCGACGCAGAAGGCGUGAGCAAUGA [Orononed] | 30.9 |
| AAUAUAUUAAGUGAGGAUAUCGAGAAAAAAACAUGAGGAUCACCCAUGUGGGAAACAUGGUAGGGUGAGAAGGUACUUAAUAUAU [Samwise Clockwise 22 - Jieux - Same State 2] | 270 |
| GUGAAGGAGAGAGAGGAUAUCCAAAGGAAAACAUGAGGAUCACCCAUGUAGAAGGUAGGAAAUUGGGAGAAGGCUCAAGAGAGAG [salish99-ss2-114] | 27 |
| AUAAAAUAAAAGGAGGAUAUCCUAAAUAAAACAUGAGGAUCACCCAUGUAAAAAAUAAUAAAAUGGGAGAAGGCCUAAAAUAAAU [SS2 M 25] | 16.9 |
| AUAAAAUAAAUUGAGGAUAUCUAUAAUAAAACAUGAGGAUCACCCAUGUUUAAACAAAGAUCAUGGGAGAAGGCAGAAAAUAAAU [SS2 M 37] | 12.5 |
| GACUGACAUGAGGAUCACCCAUGUAUUCAAACAUGAGGAUAUAUGACACGUCAUCGACGGAUAGAAGGCAUAGAUG [JR_SS001_Sub1210] | 163 |
| GAAAAACAUGAGGAUCACCCAUGUCAAUAUAUGGGAGGAUAUACAAAGACGAAAGUCAAAGUAGAAGGCCUAAAAG | 18.3 |
| AGAAAUAAAACACAGGAUAUCCAAAAGAAAACAUGAGGAUCACCCAUGUAAAAUAAAAUAAAAUGGGAGAAGGGUGAAAAUAAGA [Mat - Same State 2 - JL mod - D5] | 150 |
| AACAAUCUAUCUGAGGAUAUCAUGAAAAAAACAUGAGGAUCACCCAUGUGCAGGAAAACUGCAUAUGAGAAGGCAGAUAGAUUGA [SS2: 1101] | 21.6 |
| CGGAGACAUGAGGAUCACCCAUGUGAGAAGAGGCGAGGAUAUCGAAAGAAAGAAGAGAAACGAGAAGGCGCGAGCU [salish99-SS1-072] | 23.1 |
| AUAAAACAUGAGGAUCACCCAUGUAGAAAUAUGGGAGGAUAUACGAAGACGAAAGUCAAAGUAGAAGGCCUAAAAG [Mat - Same State 1 - Meechl mod - D115] | 26.5 |
| AGAAAUAAAAAUGAGGAUAUGCAAAAGAAAACAUGAGGAUCACCCAUGUAAAAGAAAAUAAAUGGGCAGAAGGCAUGAAAUAAAGA [Helter Skelter 3] | 33.8 |
| AACUAACAUGAGGAUCACCCAUGUUACAGCAGUUGAGGAUAUGUGGGUGAAAAUAGCAUGGCAGAAGGCGAGUGUA [SameState1 Malc#24] | 53.9 |
| CUGGACAUAGUACAGGAUAUAUGAAUAGUCACAUGAGGAUCACCCAUGUCCAUUUAUAUGGGCACAUAGAAGGGUGGUAGUUAAG [Mat - Same state - Malcolm Mod - D139] | 4.52 |
| GAAAAACAUGAGGAUCACCCAUGUGAAAAUAUGGGAGGAUAUACGAAGACGAAAGUCAAAGUAGAAGGCCUAAAAG [Garnet 31] | 23.8 |
| AAAAAACAUGAGGAUCACCCAUGUAGAAACAUGGGAGGAUAUACAAAGACGAAAGUCAAAGUAGAAGGCCUAAAGA [Mat - Same State 1 - Mod - D162] | 162 |
| GGAAAACAUGAGGAUCACCCAUGUAGAAAUAUGGGAGGAUAUACAAAGACGAAAGUCAAAGUAGAAGGCCUAAAAG [salish99-SS1-084] | 33.9 |

| Sequence | apparent KD of MS2 coat protein [nM] |
| --- | --- |
| AACAAACAUGAGGAUCACCCAUGUCAAACAAACCAAGGAUAUGGGAAGCGAGACUCGCUACCAGAAGGUGGAAAUU [Edtigebe] | 43.8 |
| GAAGAACAUGAGGAUCACCCAUGUGUAGAAGCAUGAGGAUAUGUAAGUCAAAGAAAAACGAUAGAAGGCAUGGAGA [JR_SS001_Sub1714] | 141 |
| CGGAAGGAGAGAGAGGAUAUCCAAAGGAAAACAUGAGGAUCACCCAUGUAGAAGGUAGGAAAUUGGGAGAAGGCUCAAGAGAGAG [salish99-ss2-119(!)] | 37.4 |
| AAAAACAUGGUGCAGGAUAUAUUAAUAGUCACAUGAGGAUCACCCAUGUUCAUUUAUAUGAACGAGUAGAAGGGCGAUGAAAAAA [Mat - Same state - Malcolm Mod - D111] | 247 |
| AAAAAACAUGAGGAUCACCCAUGUAGAAACAUGGGAGGAUAUACGAAGACGAAAGUCAAAGUAGAAGGCCUAAGAG [Garnet 89] | 183 |
| AAAUAAAUGACUAAGGAUAUAUCGAAGAAAACAUGAGGAUCACCCAUGUGAUAAUAAAAAGGGUGGUAGAAGGUAGUCAACAAAC [Mod 4 of Pariah 4 by Hyphema in Round 1] | 50.2 |
| AAAUAGUGCAUUAAGGAUAUGUCGCAUGACACAUGAGGAUCACCCAUGUGGUAACACAGAGGGUGGCAGAAGGUAGUGUGCAAAC [Mod 3 of Pariah 6 (Round1) by Hyphema] | 108 |
| AAAACUACAGAUCAGGAUAUGUUUAGGUAAACAUGAGGAUCACCCAUGUGCACCUGAUAAACAACACAGAAGGGAUAACGUGGGA [Geerreleon] | 20.7 |
| GAAAAACAUGAGGAUCACCCAUGUAGAAAUAUGGGAGGAUAUACGAAGACGAAAGUCAAAGUAGAAGGCCUAAGAA [Mat - Same State 1 - Eli mod - D109] | 21.7 |
| AUAAGACAUGAGGAUCACCCAUGUAUAAGAGCAUGAGGAUAUAUAAAAAGAAAAAGGAGAAUAGAAGGCAUAGUUG [JR_SS001_Sub1221] | 84.1 |
| AAUAAAAAUAGUCAGGAUAUGAGAACUAAGACAUGAGGAUCACCCAUGUAAACAGAACAAGUAAAUCAGAAGGGACAGGGUGAAA [JR_SS002_Sub201] | 39.3 |
| AAAGAAGAAAGACAGGAUAUGGAUGGGUAAACAUGAGGAUCACCCAUGUAUAAGAAAGAAAGAAACCAGAAGGGUCAAAAGAAAA [Darius III] | 42.7 |
| CAGAGACAUGAGGAUCACCCAUGUAGGAUUAUGGGAGGAUAUACAAAGACGAGAGUCAGAGUAGAAGGCCUAGGAC [salish99-ss1-144] | 20.8 |
| UACAGACAUGAGGAUCACCCAUGUAGAAUUAUGGGAGGAUAUACAAAGACGAGAGUCAGAGUAGAAGGCCUAGGAG [salish99-ss1-165] | 25.2 |
| AGAAAACAUGAGGAUCACCCAUGUGACAAUAUGGGAGGAUAUACGAAGACGAAAGUCGAAGUAGAAGGCCUAAAGA [Garnet 50] | 23.4 |
| AGGAAACAUGAGGAUCACCCAUGUAAAAAAUAUGGAGGAUAUACUAGAAGAAACAAAAUAGUAGAAGGCCAAAAAA [75%, Ex sub1, 31] | 15.2 |
| AUAUAAAUAAGGUAGGAUAUACUAAAGUAAACAUGAGGAUCACCCAUGUGAAGAAAGAAACUCAUGUAGAAGGACCAUAUAUAUA [viburnum 2] | 27.2 |
| GUCCAACAUGAGGAUCACCCAUGUGCAUGACACCGAGGAUAUGGGACUAAAGGUGCUGGACCAGAAGGCGGAAGAA [Laceus] | 27.1 |
| AAAAAAAAACGUGAGGAUAUGUGAAAAUUAACAUGAGGAUCACCCAUGUGAUAAAAAAAAAAAAAACAGAAGGUACAAAAAAAAAA [Same 2 again I have no idea] | 21.2 |
| AUAAAACAUGAGGAUCACCCAUGUAAAAAAGCAUGAGGAUAUAUAAAAAGAAAAAGAAGAAUAGAAGGCAUAGUAA [JR_SS001_Sub1222] | 71.4 |
| AACAAUCUAUCUGAGGAUAUGUGUCGAAAGACAUGAGGAUCACCCAUGUGAAAACAUGGGAAAACACAGAAGGCAGAUAGAUUGA [SS2: 1152] | 54.9 |
